# From patent publication US20260184793A1 (TJ BIOPHARMA SHANGHAI, published 2026)
# Read-outs that look alike come from different tables or passages of the source.
# Columns and labels:
# [1] = target: T1, human PD-L1 expressed on cells (Raji cells overexpressing human PD-L1; CHO cells) (human, UniProt Q9NZQ7 19-290); assay: cell-based or functional assay
# [2] = target: T1, human PD-L1 expressed on cells (Raji …); assay: flow cytometry, PD-L1 expressed on CHO or Raji cells
# human His-PD-L1 [3] = target: T2, human His-PD-L1 (human, UniProt Q9NZQ7 19-238, limits assumed); assay: ELISA: plate coated with human His-PD-L1, antibody titrated, goat anti-human IgG Fc HRP, OD450
# T2 construct: also called human PD-L1
# Description: Briefly, 100 μl anti-PD-L1 antibody at different concentrations was incubated in each well of 96 well plate pre-coated with human His-PD-L1, and then goat anti-human IgG Fc HRP was added and analyzed by coloring reaction of HRP with its substrate.
# human His-PD-L1 [4] = target: T2, human His-PD-L1; assay: ELISA blocking assay: antibody titrated together with Biotin-PD-1 on coated human His-PD-L1, Streptavidin-HRP, OD450
# [5] = target: T1, human PD-L1 expressed on cells (Raji …); assay: flow cytometry on CHOK1-PDL1 cells (cell binding assay), GMFI
# human His-PD-L1 [6] = target: T2, human His-PD-L1; assay: ELISA blocking assay: antibody titrated together with Biotin-PD-1 on coated human His-PD-L1, Streptavidin-HRP, OD450; remark: listed apart in the source
# [7] = target: T1, human PD-L1 expressed on cells (Raji …); assay: flow cytometry on Raji-PDL1 cells (cell binding assay), GMFI
# Description: Binding capability of the anti-PD-L1 antibody of the present application was further evaluated by using Raji cells overexpressing human PD-L1. Briefly, 50 μl Raji cells overexpressing human PD-L1 were seeded into 96 well plate at a concentration of 2*10⁵ cells/well. […] Then the cells were washed twice by FACS buffer and supplemented with 100 μl PE-anti-hu IgG, followed by incubation on ice for 1 hour. After incubation, the cells in each well were collected and resuspended with 65 μl FACS buffer for analysis by flow cytometry.
# human His-PD-L1 [8] = target: T2, human His-PD-L1; assay: ELISA blocking assay: antibody titrated together with Biotin-PD-1 on coated human His-PD-L1, Streptavidin-HRP, OD450; remark: listed apart in the source
# [9] = target: T1, human PD-L1 expressed on cells (Raji …); assay: cell-based or functional assay; remark: listed apart in the source
# human His-PD-L1 [10] = target: T2, human His-PD-L1; assay: ELISA blocking assay: antibody titrated together with Biotin-PD-1 on coated human His-PD-L1, Streptavidin-HRP, OD450; remark: listed apart in the source
# [11] = target: T1, human PD-L1 expressed on cells (Raji …); assay: flow cytometry on CHOK1-PDL1 cells (cell binding assay), GMFI; remark: listed apart in the source
# T2 sequence (Q9NZQ7 19-238 limits assumed): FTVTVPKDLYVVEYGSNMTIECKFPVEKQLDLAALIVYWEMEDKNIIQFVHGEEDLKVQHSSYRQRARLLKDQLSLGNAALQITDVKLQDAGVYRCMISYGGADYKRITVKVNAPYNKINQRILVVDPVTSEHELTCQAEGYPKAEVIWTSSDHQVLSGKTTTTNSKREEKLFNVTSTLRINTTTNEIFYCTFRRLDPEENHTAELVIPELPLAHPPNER
# T1 sequence (Q9NZQ7 19-290): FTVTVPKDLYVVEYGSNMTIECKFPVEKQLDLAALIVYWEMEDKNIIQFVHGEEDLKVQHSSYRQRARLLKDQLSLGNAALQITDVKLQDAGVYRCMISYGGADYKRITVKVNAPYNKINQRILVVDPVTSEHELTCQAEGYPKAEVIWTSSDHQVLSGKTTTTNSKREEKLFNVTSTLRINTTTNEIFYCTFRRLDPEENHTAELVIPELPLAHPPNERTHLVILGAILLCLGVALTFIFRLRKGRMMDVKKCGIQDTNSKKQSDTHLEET
Binder,binding result [2],binding result (human His-PD-L1 [3]),further results
93-VH-6 (VHH) VHH: EVQLVESGGGLVQPGGSLRLSCAASGFTFTFRHYVMGWFRQAPGKEREFVAAISWSGSGSYYADSVKGRFTISRDNSKNTVYLQMNSLRAEDTAVYYCAADMTTRMSQASREYDYWGQGTLVTVSS,–,–,"EC50 (read off the curve), NFAT-luciferase signal (RLU), CHO-PDL-1 aAPC and Jurkat-PD-1-NFAT [1]: ~700 pM"
"R21448519 (VHH, ELISA detection with anti-human IgG Fc implies a human Fc part that is not described) VHH: EVQLVESGGGLVQPGGSLRLSCAASGFTFTFRHYVMGWFRQAPGKEREFVAAISWSGSGSYYADSVKGRFTISRDNSKNTVYLQMNSLRAEDTAVYYCAADMTTRMSQDSDEYDYWGQGTLVTVSS",–,–,IC50 (read off the curve) (human His-PD-L1 [4]): ~800 pM
"R21448515 (VHH, ELISA detection with anti-human IgG Fc implies a human Fc part that is not described) VHH: EVQLVESGGGLVQPGGSLRLSCAASGFTFTFYHYVMGWFRQAPGKEREFVADISWSGSGSYYADSVKGRFTISRDNSKNTVYLQMNSLRAEDTAVYYCAADMTTRMSQASDEYDYWGQGTLVTVSS",–,–,IC50 (read off the curve) (human His-PD-L1 [4]): ~800 pM
"R21448509 (VHH, ELISA detection with anti-human IgG Fc implies a human Fc part that is not described) VHH: EVQLVESGGGLVQPGGSLRLSCAASGFTFTFYHYVMGWFRQAPGKEREFVAAISWSGSGSYYADSVKGRFTISRDNSKNTVYLQMNSLRAEDTAVYYCAADMTTRMSQASDEYDYWGQGTLVTVSS",–,–,binding result (human His-PD-L1 [6]): binds; binding result [5]: binds
"R21448505 (VHH, ELISA detection with anti-human IgG Fc implies a human Fc part that is not described) VHH: EVQLVESGGGLVQPGGSLRLSCAASGFTFTFRHYVMGWFRQAPGKEREFVAAISWSGSGSYYADSVKGRFTISRDNSKNTVYLQMNSLRAEDTAVYYCAADMTTRMSQDSREYDYWGQGTLVTVSS",–,–,EC50 (read off the curve) [5]: ~4000 pM
"R21448514 (VHH, ELISA detection with anti-human IgG Fc implies a human Fc part that is not described) VHH: EVQLVESGGGLVQPGGSLRLSCAASGFTFTFYHYVMGWFRQAPGKEREFVADISWSGSGSYYADSVKGRFTISRDNSKNTVYLQMNSLRAEDTAVYYCAADMTTRMSQDSREYDYWGQGTLVTVSS",–,–,IC50 (read off the curve) (human His-PD-L1 [4]): ~600 pM
"R21448516 (VHH, ELISA detection with anti-human IgG Fc implies a human Fc part that is not described) VHH: EVQLVESGGGLVQPGGSLRLSCAASGFTFTFYHYVMGWFRQAPGKEREFVADISWSGSGSYYADSVKGRFTISRDNSKNTVYLQMNSLRAEDTAVYYCAADMTTEMSQDSDEYDYWGQGTLVTVSS",–,–,EC50 (read off the curve) [7]: ~400 pM; IC50 (read off the curve) (human His-PD-L1 [8]): ~700 pM
112-VH47 (VHH) VHH: EVQLVESGGGLVQPGGSLRLSCAASGFTFSSGTQFSDSKIDWYRQAPGKGLVWVAGIFSTGSTIYEDSVKGRFTISRDNAKNTGYLQMNSLRAEDTAVYYCRVIGRGILAWGQGTLVTVSS,–,–,"EC50 (read off the curve), NFAT-luciferase signal (RLU), CHO-PDL-1 aAPC and Jurkat-PD-1-NFAT [1]: ~600 pM"
"R21560102 (VHH, ELISA detection with anti-human IgG Fc implies a human Fc part that is not described) VHH: EVQLVESGGGLVQPGGSLRLSCAASGFTFSSGTQFSDSKIDWYRQAPGKGLVWVAGIFQTGSTIYEDSVKGRFTISRDNAKNTGYLQMNSLRAEDTAVYYCRVIGRGILAWGQGTLVTVSS",–,–,"EC50 (read off the curve), NFAT-luciferase signal (RLU), CHO-PDL-1 aAPC and Jurkat-PD-1-NFAT [9]: ~500 pM; IC50 (read off the curve) (human His-PD-L1 [10]): ~800 pM; EC50 (read off the curve) [11]: ~3000 pM"

# Second part, led by results:
binding result [2],binding result (human His-PD-L1 [3]),Binder,further results
binds,binds,"R21448517 (VHH, ELISA detection with anti-human IgG Fc implies a human Fc part that is not described) VHH: EVQLVESGGGLVQPGGSLRLSCAASGFTFTFRHYVMGWFRQAPGKEREFVAAISWSGSGSYYADSVKGRFTISRDNSKNTVYLQMNSLRAEDTAVYYCAADMTTEMSQDSREYDYWGQGTLVTVSS",–
binds,binds,"R21448502 (VHH, ELISA detection with anti-human IgG Fc implies a human Fc part that is not described) VHH: EVQLVESGGGLVQPGGSLRLSCAASGFTFTFYHYVMGWFRQAPGKEREFVAAISWSGSGSYYADSVKGRFTISRDNSKNTVYLQMNSLRAEDTAVYYCAADMTTRMSQASREYDYWGQGTLVTVSS",–
–,binds,"R21448506 (VHH, ELISA detection with anti-human IgG Fc implies a human Fc part that is not described) VHH: EVQLVESGGGLVQPGGSLRLSCAASGFTFTFRHYVMGWFRQAPGKEREFVAAISWSGSGSYYADSVKGRFTISRDNSKNTVYLQMNSLRAEDTAVYYCAADMTTRMSQASDEYDYWGQGTLVTVSS",binding result [5]: binds
binds,binds,"R21448508 (VHH, ELISA detection with anti-human IgG Fc implies a human Fc part that is not described) VHH: EVQLVESGGGLVQPGGSLRLSCAASGFTFTFYHYVMGWFRQAPGKEREFVAAISWSGSGSYYADSVKGRFTISRDNSKNTVYLQMNSLRAEDTAVYYCAADMTTRMSQDSREYDYWGQGTLVTVSS",–
binds,binds,"R21448507 (VHH, ELISA detection with anti-human IgG Fc implies a human Fc part that is not described) VHH: EVQLVESGGGLVQPGGSLRLSCAASGFTFTFYHYVMGWFRQAPGKEREFVAAISWSGSGSYYADSVKGRFTISRDNSKNTVYLQMNSLRAEDTAVYYCAADMTTEMSQASREYDYWGQGTLVTVSS",–
binds,binds,"R21448513 (VHH, ELISA detection with anti-human IgG Fc implies a human Fc part that is not described) VHH: EVQLVESGGGLVQPGGSLRLSCAASGFTFTFYHYVMGWFRQAPGKEREFVADISWSGSGSYYADSVKGRFTISRDNSKNTVYLQMNSLRAEDTAVYYCAADMTTEMSQASREYDYWGQGTLVTVSS",–
binds,binds,"R21448504 (VHH, ELISA detection with anti-human IgG Fc implies a human Fc part that is not described) VHH: EVQLVESGGGLVQPGGSLRLSCAASGFTFTFRHYVMGWFRQAPGKEREFVAAISWSGSGSYYADSVKGRFTISRDNSKNTVYLQMNSLRAEDTAVYYCAADMTTEMSQASREYDYWGQGTLVTVSS",–
binds,binds,"R21448518 (VHH, ELISA detection with anti-human IgG Fc implies a human Fc part that is not described) VHH: EVQLVESGGGLVQPGGSLRLSCAASGFTFTFRHYVMGWFRQAPGKEREFVAAISWSGSGSYYADSVKGRFTISRDNSKNTVYLQMNSLRAEDTAVYYCAADMTTEMSQASDEYDYWGQGTLVTVSS",–
binds,binds,"R21560106 (VHH, ELISA detection with anti-human IgG Fc implies a human Fc part that is not described) VHH: EVQLVESGGGLVQPGGSLRLSCAASGFTFSSGTQFSDSKADWYRQAPGKGLVWVAGIFSTGSTIYEDSVKGRFTISRDNAKNTGYLQMNSLRAEDTAVYYCRVIGRGTLAWGQGTLVTVSS",–
binds,binds,"R21560103 (VHH, ELISA detection with anti-human IgG Fc implies a human Fc part that is not described) VHH: EVQLVESGGGLVQPGGSLRLSCAASGFTFSSGTQFSDSKIDWYRQAPGKGLVWVAGIFSTGSTIYEDSVKGRFTISRDNAKNTGYLQMNSLRAEDTAVYYCRVIGIGILAWGQGTLVTVSS",–
